# T1: 3xFLAG-MITF (UniProt Q08874 1-526)
# T1 sequence (looked up): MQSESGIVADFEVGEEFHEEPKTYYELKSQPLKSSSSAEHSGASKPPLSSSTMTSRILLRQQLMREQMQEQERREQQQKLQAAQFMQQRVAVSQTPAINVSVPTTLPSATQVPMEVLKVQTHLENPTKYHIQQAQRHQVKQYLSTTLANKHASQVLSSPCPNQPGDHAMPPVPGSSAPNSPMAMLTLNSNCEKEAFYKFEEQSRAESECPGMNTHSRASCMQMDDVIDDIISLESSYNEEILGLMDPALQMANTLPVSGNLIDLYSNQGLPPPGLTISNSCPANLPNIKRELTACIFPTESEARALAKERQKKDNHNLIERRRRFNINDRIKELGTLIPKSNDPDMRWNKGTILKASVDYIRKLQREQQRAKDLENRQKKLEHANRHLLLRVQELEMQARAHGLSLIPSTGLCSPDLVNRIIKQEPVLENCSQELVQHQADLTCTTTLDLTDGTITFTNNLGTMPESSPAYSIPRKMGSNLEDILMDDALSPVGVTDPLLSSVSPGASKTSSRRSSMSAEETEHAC
# Target: T1, 3xFLAG-MITF
# Test: cell-based or functional assay
binder,measurement,value
3xFLAG-PAX6 (natural protein) not shown,"luciferase reporter under the hTyr promoter in HeLa cells, fold change with MITF + PAX6 (MITF alone 12.6 fold)",71.3 fold change
same,"luciferase reporter under the mTyrp1 promoter in HeLa cells, fold change with MITF + PAX6 (MITF alone 5.6 fold; PAX6 alone no activation)",51.9 fold change
same,"luciferase reporter with four consecutive M-box elements in HeLa cells, fold activity with PAX6 and MITF together (MITF alone 6.6 fold; PAX6 alone none)",11.9 fold
